# Measurements reported in US20210205413A1 (Nektar Therapeutics, priority 2018, published 2021).
# Entries after “also recorded” stand apart in the source; their conditions may differ.
# Tests used:
# [1] = test system: CD4+FoxP3+CD25bright Tregs; test: Phase I single ascending dose study in healthy volunteers: Tregs in peripheral blood by flow cytometry; type: in vivo, human
# Description: (§1) A double-blind, randomized, placebo-controlled study is conducted to evaluate the safety, tolerability, pharmacokinetics, and pharmacodynamics of single ascending low sub-cutaneous doses of an RUR20kD-IL-2 composition (RUR20kD-IL-2) in healthy volunteers. […] Twelve subjects are randomized to each dose cohort, nine of whom received a single subcutaneous dose of RUR20kD-IL-2 while three received placebo. […] The drug product is supplied in single-use glass vials and stored at 2-8° C. […] Placebo is a commercially available 0.9% sodium chloride solution. A starting dose of 0.3 μg/kg is chosen using the minimally anticipated biological effect level (MABEL) approach and is supported by the no observed adverse effect level (NOAEL) in the most sensitive species from nonclinical toxicology studies.
# (§2) The primary objective of the study is to evaluate the safety and tolerability of RUR20kD-IL-2 administered as a single subcutaneous dose. […] In a first phase of the study, immune markers are tested pre-dose up to 20 hours post-dose. Specifically, Tregs, CD4^+-T cells, CD8^+-T cells, natural killer (NK) cells, cytokines, soluble CD25, and RNA are tested in RUR20kD-IL-2- and placebo-receiving cohorts. In subsequent phases, the same immune markers are also tested at 4-, 5-, 6-, 7-, 8-, 10-, 12-, 15-, 18-, 20-, 25-, 30-, 40, and 50-days post-dose.
# [2] = Solution phase stability by HPLC; type: physicochemical; conditions: 5° C.
# Description: The mobile phase is 0.2M ammonium acetate (pH 5.5) at a volume ratio of 80:20 with acetonitrile. The diluent/formulation buffer contained 10 mM sodium acetate, 200 mM sodium chloride, 2% sucrose, at a pH of 5.0. […] Samples are stable up to 5 days at 5° C. in solution.
# (refrigerated), and −20° C. at 1, 3, 5, and 7-day time points by RP-HPLC as previously described.
# Differences between the RUR20kD-IL-2 composition solutions are evaluated against a control, freshly prepared RUR20kD-IL-2 composition sample solution.
# [3] = Phase I single ascending subcutaneous dose study in healthy volunteers: pharmacokinetics; type: in vivo, human; conditions: for AUC0-14 d / Cmax / tmax: Single Dose Study
# Description: as §1, §2
# [4] = Phase I single ascending dose study in healthy volunteers: safety and tolerability; type: in vivo, human; conditions: single SC doses
# Description: as §1, §2
substance,measurement,setting,value
"(1,3-bis(methoxypoly(ethylene glycol)10kDcarbamoyl)-2-propanoxy)-4-butanamide)interleukin-2) [RUR20kD-IL-2]",mean increase in numbers of CD4+FoxP3+CD25bright Tregs compared to placebo,[1]; single SC 3.0 μg/kg,3.0 fold
same,mean increase in numbers of CD4+FoxP3+CD25bright Tregs compared to pre-dose,[1]; single SC 3.0 μg/kg,3 fold
same,time of peak (maximal) Treg response,[1]; single SC 3.0 μg/kg,84 h
same,mean increase in numbers of CD4+FoxP3+CD25bright Tregs compared to placebo,[1]; single SC 6.0 μg/kg,3.5 fold
same,mean increase in numbers of CD4+FoxP3+CD25bright Tregs compared to pre-dose,[1]; single SC 6.0 μg/kg,3.5 fold
same,mean increase in numbers of CD4+FoxP3+CD25bright Tregs compared to placebo,[1]; single SC 9.0 μg/kg,4.1 fold
same,mean increase in numbers of CD4+FoxP3+CD25bright Tregs compared to pre-dose,[1]; single SC 9.0 μg/kg,4.1 fold
same,mean increase in numbers of CD4+FoxP3+CD25bright Tregs compared to placebo,[1]; single SC 13.5 μg/kg,5.0 fold
same,mean increase in numbers of CD4+FoxP3+CD25bright Tregs compared to pre-dose,[1]; single SC 13.5 μg/kg,5 fold
same,mean increase in numbers of CD4+FoxP3+CD25bright Tregs compared to pre-dose,[1]; single SC 20.0 μg/kg,8.1 fold
same,increase in mean peak Treg:CD8 ratio over baseline,[1]; single SC 28 μg/kg,15 fold
same,mean peak increase in numbers of CD25-bright Tregs above pre-dose values,[1]; single SC 28 μg/kg,17 fold
same,mean peak percentage of CD25bright Tregs,"[1]; single SC 28.0 μg/kg, increased from 0.5%",7.4%
same,numbers of Tregs versus placebo subjects,[1]; single SC 0.3 and 1.0 μg/kg,no change in the numbers of Tregs; also recorded: No changes in total CD4+ Tregs
same,total CD4+FoxP3+CD25+ Treg population,"[1]; single SC 3.0, 6.0, 9.0 and 13.5 μg/kg",dose-dependent increase in the total CD4+FoxP3+CD25+ Treg population
same,doses at which increases in Treg activation markers (ICOS and CTLA4) were observed,[1]; single SC dose,≥ 0.0135 mg/kg
same,time until CD4+FoxP3+CD25bright Treg levels return to baseline,"[1]; single SC dose, 3.0 μg/kg and above",20 to 25 days
same,days at which Treg levels peak,"[1]; single SC dose, 3.0 to 28.0 μg/kg cohorts",10 to 12 days
same,time samples are stable in solution,[2]; 1.0 mg/mL in formulation buffer,up to 5 days
same,"relative difference of mono-PEG, tetra-PEG and penta-PEG species","[2]; 1.0 mg/mL solution pH 5, RT, −20° C. up to 7 days, RP-HPLC",up to 8%
same,AUC0-14 d,"[3]; 3.0 μg/kg, Median (n = 9)",214 ng·days/mL
same,Cmax,"[3]; 3.0 μg/kg, Median (n = 9)",21 ng/mL
same,tmax,"[3]; 3.0 μg/kg, Median (n = 9)",84 h
same,AUC0-14 d,"[3]; 3.0 μg/kg, max",388 ng·days/mL
same,Cmax,"[3]; 3.0 μg/kg, max",41 ng/mL
same,tmax,"[3]; 3.0 μg/kg, max",336 h
same,AUC0-14 d,"[3]; 3.0 μg/kg, min",143 ng·days/mL
same,Cmax,"[3]; 3.0 μg/kg, min",13 ng/mL
same,tmax,"[3]; 3.0 μg/kg, min",31.2 h
same,Cmax,"[3]; 6.0 μg/kg, Median (n = 9)",46 ng/mL
same,tmax,"[3]; 6.0 μg/kg, Median (n = 9)",120 h
same,AUC0-14 d,"[3]; 6.0 μg/kg, max",705 ng·days/mL
same,Cmax,"[3]; 6.0 μg/kg, max",70 ng/mL
same,tmax,"[3]; 6.0 μg/kg, max",220 h
same,AUC0-14 d,"[3]; 6.0 μg/kg, min",73 ng·days/mL
same,Cmax,"[3]; 6.0 μg/kg, min",13 ng/mL
same,tmax,"[3]; 6.0 μg/kg, min",48 h
same,Half-life,"[3]; healthy volunteers, single SC dose, decline after approximately 2 weeks post-dose, preliminary",190 to 220 h
same,time of maximum concentrations post-dose,"[3]; healthy volunteers, single SC dose, preliminary PK analysis",4 to 6 days
same,adverse events,[4],primarily limited to mild or moderate (Grade 1 or 2) injection site reactions; also recorded: primarily limited to mild (grade 1) injection site reactions
same,anti-drug antibodies,[4],no elicitation of anti-drug antibodies; also recorded: none have been detected
same,"dose-limiting toxicities, serious adverse events, deaths, clinically significant abnormalities",[4],"No dose-limiting toxicities (DLTs), serious adverse events (SAEs), deaths, or clinically significant abnormalities; also recorded: no dose-limiting toxicities, deaths, or adverse events leading to study discontinuation; also recorded: no dose-limiting toxicities, serious adverse events, deaths, or clinically significant abnormalities in vital signs, electrocardiograms, or laboratory test values"
